Experimental data: publication PMC2196190

Molecular target: hBUBR1 (human (endogenous in HeLa)) (UniProt O60566)
Assay: co-IP

Chain of UniProt O60566 (O60566 whole entry): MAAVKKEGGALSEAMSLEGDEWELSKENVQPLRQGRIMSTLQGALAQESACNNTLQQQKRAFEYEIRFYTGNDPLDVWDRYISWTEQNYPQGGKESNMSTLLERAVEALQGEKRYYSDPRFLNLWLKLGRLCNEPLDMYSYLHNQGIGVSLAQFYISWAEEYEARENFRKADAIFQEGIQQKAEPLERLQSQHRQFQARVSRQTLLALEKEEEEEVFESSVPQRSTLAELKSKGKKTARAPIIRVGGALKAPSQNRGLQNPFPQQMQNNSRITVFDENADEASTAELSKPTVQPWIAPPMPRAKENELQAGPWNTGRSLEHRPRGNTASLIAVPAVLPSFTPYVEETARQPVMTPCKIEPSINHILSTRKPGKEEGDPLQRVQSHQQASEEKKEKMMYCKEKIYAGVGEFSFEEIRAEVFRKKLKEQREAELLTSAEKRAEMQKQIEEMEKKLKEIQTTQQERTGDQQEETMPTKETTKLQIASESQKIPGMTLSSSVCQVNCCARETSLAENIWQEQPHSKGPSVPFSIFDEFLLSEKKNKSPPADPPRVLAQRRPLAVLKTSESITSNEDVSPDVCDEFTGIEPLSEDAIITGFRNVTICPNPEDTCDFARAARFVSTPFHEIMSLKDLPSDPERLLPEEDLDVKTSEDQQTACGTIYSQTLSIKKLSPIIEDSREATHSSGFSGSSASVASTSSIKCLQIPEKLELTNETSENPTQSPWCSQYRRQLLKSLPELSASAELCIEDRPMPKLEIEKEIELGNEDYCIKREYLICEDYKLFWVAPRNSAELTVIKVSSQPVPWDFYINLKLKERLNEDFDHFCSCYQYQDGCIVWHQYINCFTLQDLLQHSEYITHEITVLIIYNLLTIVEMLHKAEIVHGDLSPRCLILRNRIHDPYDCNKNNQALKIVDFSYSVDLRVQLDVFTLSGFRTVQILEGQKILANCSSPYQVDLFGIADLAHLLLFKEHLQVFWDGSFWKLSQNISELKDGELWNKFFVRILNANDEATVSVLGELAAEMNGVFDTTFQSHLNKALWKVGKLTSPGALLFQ

## anaphase-promoting complex/cyclosome (APC/C) from mitotic HeLa cells (from UniProt P30260;Q13042;Q9UJX3)
  stoichiometry N: 1
